Laboratory results published in patent EP4733322A1 (dated 2026).

Biological target: T1, KRAS G12V peptide on HLA-A*11 (human)
T1 peptide: VVGAVGVGK
Experiment: cytokine release

binding result: recognises
B1: CR-KVA11-N03 (TCR, V domains shown)
Valpha: RKEVEQDPGPFNVPEGATVAFNCTYSNSASQSFFWYRQDCRKEPKLLMSVYSSGNEDGRFTAQLNRASQYISLLIRDSKLSDSATYLCVVPGGTGGGNKLTFGTGTQLKVEL
Vbeta: DTAVSQTPKYLVTQMGNDKSIKCEQNLGHDTMDWYKQDSKKFLKIMFSYNNKELIINETVPNRFSPKSPDKAHLNLHINSLELGDSAVYFCASSHWGAQETQYFGPGTRLLVL
